Target: the molecule itself
Assay: immunoblot of plant extract made without DTT; total protein of RL-treated WT plants extracted without DTT; the legend calls it an immunoprecipitation analysis; dimer and monomer LSD1 detected

B1: lesion simulating disease 1 (LSD1) (natural protein, UniProt P94077 1-189, looked up)
chain: MKVADMQDQLVCHGCRNLLMYPRGASNVRCALCNTINMVPPPPPPHDMAHIICGGCRTMLMYTRGASSVRCSCCQTTNLVPAHSNQVAHAPSSQVAQINCGHCRTTLMYPYGASSVKCAVCQFVTNVNMSNGRVPLPTNRPNGTACPPSTSTSTPPSQTQTVVVENPMSVDESGKLVSNVVVGVTTDKK
notes: lesion simulating disease 1 (LSD1), C2C2 zinc finger protein with three zinc finger domains, Arabidopsis; detected with LSD1 antibody (Agrisera); source: endogenous, Arabidopsis WT plant total protein extract
stoichiometry N: 2

Source: paper PMC4419654, “LSD1 and HY5 antagonistically regulate red light induced-programmed cell death in Arabidopsis” (Frontiers in Plant Science, 2015)
